The target of data set [1] is T1, HicB antitoxin (Streptococcus pneumoniae, UniProt A0A0H2URC7 1-150). The experiment in a line: EMSA. (In general: A gel shift assay detects complexes by their altered migration in electrophoresis.)
Data set [2] addresses T2, HicB antitoxin;HicA toxin (Streptococcus pneumoniae;Streptococcus …, UniProt A0A0H2URC7;A0A0H2URA5 1-150;1-68, |). The experiment in a line: EMSA.
Data set [3] deals with T1, HicB antitoxin. The experiment in a line: ITC.
Data set [4] has as its target T3, HicB109-150 (C-terminal DNA-binding domain) (Streptococcus pneumoniae, UniProt A0A0H2URC7 109-150).
T3 chain: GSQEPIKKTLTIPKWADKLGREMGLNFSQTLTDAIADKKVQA
Description: NMR titration.

Data set [5] deals with T2, HicB antitoxin;HicA toxin. The experiment in a line: ITC. On the technique in general: In ITC the heat of successive injections is recorded.

B1: Pal-I (dsDNA)
DNA 1: TCTGTAACGTTCGATACAGA
DNA 2: TCTGTATCGAACGTTACAGA
As for B1, the binding result in data set [1] and in data set [2] was “no binding” throughout.

B2: hicBA promoter DNA, 28 bp (dsDNA)
DNA 1: TAATAGAATAATAAGTATCACTCCTTTA
DNA 2: TAAAGGAGTGATACTTATTATTCTATTA
By Kd is commonly meant the concentration at which binding is half-saturated. A low value points to a tighter complex. For the molecule B2, the dissociation constant Kd was found to be 8.8 ± 1.1 µM in data set [3], 4.5 ± 1.1 µM in data set [4] and 4.2 ± 0.4 µM in data set [5].

Values taken from paper PMC6159526.
